This note sets out measurements from the domain aggregation screens of Martell et al. (2025).

A value given as a limit tells only on which side of the number the result lay.

The data set can be described thus: soluble fraction after stress (log2 fold change); higher = more stays soluble; pooled small domains, quantitative proteomics. The settings on record: stress: pH 4. The essentials: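 Values are log2 fold changes, and higher ones mean more of the domain stayed soluble. Each fold change reflects the soluble amount of a domain after acid stress and is taken as a measure of aggregation propensity. The stress was pH 4, applied to pooled custom libraries of small protein domains analysed by high-throughput quantitative proteomics.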
For “HMKTSTGSAMYLTLDLAEKYAGQAFTLVHKKADGTFEYLYATADVDGKVKFGPVYELSPFMLVKGQL”, the “soluble fraction (log2)” value is -0.674. In the case of “HMKTSVGSKMMVMANNLSIRKSANLLSEKLADLSKGDMVEYISSTNGWNKVRYNGYVGYVSSYYLKDTGEV”, the “soluble fraction (log2)” value is 0.375. With “HMKTTKDSVFEYIQKELMTNEEYKQGINTNVIAQHFGLQRSNISTILNELVKEDRLEKTNTRPVLYFLPQ” the figure was 0.184; with “HMKTTKRERARAKLIQLLENEDRPAKEIYAGLGDIGVGSRTVEKVKKELQVTTYRSGGSWYWSLPKP”, -0.147. For “HMKTVKPSQIPYSEFLKLVETDKINDVSMVGRNIIGHLDDGSKFKTYTPPNDPTLIEKLSSHNIVINAAPE”, the “soluble fraction (log2)” value worked out at 0.134. With “HMKTVLDSLLRILDSKELDIVVLRHIVGLTLTEIAKEKDMKKGTVFWMYNRAVKKLRLESERMGL” the figure was -0.977. With “HMKTVPNVEGEKDGTAQSAIESAGLKVGKVTYQYDDNTSKGLVISQSVKGGEKVKPNTAIDLVVSNGPK” the figure was 0.22; with “HMKTYSEAQLKIALESLIENGKKQGYLTFQEINEILPDGIINTQDLKVIISILKETGIVVAKEKPEINIDV”, 0.273.

Turning to “HMKVEFTPAYLKKFKANKNAWKFYEAQTNTYKKQSAWYVISAKQEETRLRRLDLLIYDSENGIHIKPLRR”, the “soluble fraction (log2)” value is 0.211. “HMKVFTEDEMLEKIKEYLSTNSYINRRVMETQFGLRQNIALKWLKHFTEIGVLRKEGERNSPIYFLNN”: the “soluble fraction (log2)” value amounted to 0.154. With “HMKVKIFNGMKLVTNSTGLTVDGKPAALDESNADAKTYSQGLYVFIVYQSGKIAVMQDGKFLGYA” the figure was 0.301; with “HMKVLNVLESEIVRLFKQGQQKDNIRDNIYKTHGQHYNNKKSFNVVFGRKWNSLLEQGFLES”, 0.241; with “HMKVRDTQYIIEAAISKNVIRKSKNIYYYGTDIIGRSLEDAIASLNDKKNQDIKMTILQEIES”, 0.0993. With “HMKVSKNKIVKGMGFHHVALKAVDFDASFKFYTEGLGMKFYTSWGEGNGKIAMLDLGDGGILELFA” the figure was 0.22.

Consider “HMKVTGITDDILQRLKQQKGYLMLSDKSSPDEIYAAFGVSKKVFKQAIGTLFKQRQIIIEEQGIRLAN”, for which the “soluble fraction (log2)” value is 0.201. With “HMKVTQDIIFKRNGEEIKSKVLEITPDLIIYIDYSRADNIAREINISEVNMIIYKNGTSEIFSRPEE” the figure was -1.15. With “HMKVTTGIDGLIGEEGVALSDFSGKGKIMVHGEIWNAEFSGEVKKGEVLLVEKANGMTLITRKKN” the figure was -0.401.

As for “HMKYKWLAGQLRRELLENGGKKGYKLPTELELARRYQLSRQTVRRALQLLEEEGLILRRQGSGAYATGKPP”, the “soluble fraction (log2)” value is 0.0629. With “HMKYLREEDYLPIGSIIRLDDRNFRVDHVNFMFKSVSLQDMDLTNSGQPIFRSESLPHIRELYEQQQNELV” the figure was -1.09; with “HMKYYIYQGLGDSGELTKIAEVTDVKTYTATGLEANTKYRFAVSAYNGLRESSKSNIITVTT”, -0.325. Turning to “HMLADIGGRIADLRREVGLTQGELAEKADISVVHLSNIELGKKTPGLSTLIRIAEALDVATDWILQA”, the “soluble fraction (log2)” value was -1.13. With “HMLAFDKDDSGAVAEIILVLGRYWMDFSHKKYPAAEGVALRHKGLSHIFTVLRPYLSTPASELIGERLRR” the figure was 0.22.

On to “HMLAGVDTLADRELEVFQMLGRGKSTKEIAQVLNLGESTVETYRARIKEKLQLRSAAELYLRAGQWVRDHG”, for which the “soluble fraction (log2)” value was -0.426. As for “HMLAIKKGGIFAILGPNGSGKSTFSKVLAGHPAYTVVDGDIFFKGLSILDLEPEERSHLGIFLAFQ”, the “soluble fraction (log2)” value is -0.151.

Regarding “HMLAKRYLVYGSGSLNSAYPDTKNIAYGIDSGKGFFLVGILTENEASKLKLKGYYVIEDFPLDFH”, the “soluble fraction (log2)” value was -0.921. “HMLAPLAEMRGDTLDRLEKAVLELFSSRDFHEVSLQDVARRANVSLQTIYKYFGSKEALVYTMLDTLLGR”: the “soluble fraction (log2)” value is -0.87. With “HMLAQVSDEGPIRAMVEAVMARSTQQLEDYKNGKVKLRQYFFGEVMKAAKGKANPTVINKLLDEMLPETL” the figure was 0.0418. Take “HMLAQYPGQVFSKEQIYNQVWKEPYYGVEDNVMSLIRRIRKKIEPDPSRPIYILTVWGIGYKFNN”: the “soluble fraction (log2)” value worked out at 0.0406. With “HMLARFSGIALNTWTQADVERTFGPPMLVERVARFDGDIWTYRFMDDYEPRMAHIHIDRAGTVRQLVF”, the “soluble fraction (log2)” value was -1.74. On to “HMLAVEKIEFVGNERIAAADLESALSALYDRPMTTISDDEIAKLLSGFSLIETFTSQAEPPHTLRVNIRE”, for which the “soluble fraction (log2)” value was -0.452.

Take “HMLDEKFLSELMLALLRNHRRGLRAEVLLHKVRSNMELDGYKSLLVGVGRMEMWELAREIIDFVKAEG”: the “soluble fraction (log2)” value was -2.07. With “HMLDGFEVGMTVMRKPGTETGFTGWPPFADKDEFPVIERIDTSDSTLLLRFNDTSWWINASLVEPSDV” the figure was -0.729. For the sequence “HMLDIPEVGQAVQVRGRLGTVFSVAPYDGREGRLHLVTVDYLDDARPPENDEILWEIESGARILG”, the “soluble fraction (log2)” value was -0.763. For the sequence “HMLDLNEVEFYAIENQLKENLKIDSKRFYELVPLIKGYQEDDIIQVLRWLIDNNRIIRHKDESLTWHS”, the “soluble fraction (log2)” value is -1.02.

As to “HMLDLSEEEQKIVSILEKQGNLQINSLVVEADIPVHKINAILFELEMKGVVRVLALSLIHISEP”, the “soluble fraction (log2)” value is -0.628. With “HMLDPVLQREKDESFTDYHIRLFKNKDTYHIDTKTIATLLNKDQGTNYDESKWRKDFKQYERWNDYIMSKN” the figure was -0.155. As for “HMLDPYNVLGVPRDAGMDEIKKAYRKLSRTYHPDANIDNPNKAQAEEKFKQIQEAYQQIVKERTE”, the “soluble fraction (log2)” value was -0.152.

Consider “HMLDQAVPVFETPKYAVSYIQNRLVEMKAASPEEAASRFYESISESERRGLFEALLIKEAEES”, for which the “soluble fraction (log2)” value is -0.821. As for “HMLDQGTQSRYQIMDGVRALITGDWSSHGAGLVRELSQEVARTSGLTATSERTFFVPFSALS”, the “soluble fraction (log2)” value is -0.111.

With “HMLDSDARRRGLIEYLSLNGYATMRQLAGEFDVSINTIQRDITYLARYYPLETAYGRYGGGVYFEQNWQ”, the “soluble fraction (log2)” value was -1.04. With “HMLDSGNPILPYKLSLLANVDIRTVRNAISAGELVAFKSEFDGEVYVENGSARRWLHGRRGFKPTLK” the figure was -0.772; with “HMLDSNILTLIKELKIRHHFTATQTHQLEKVIQQAHALGLDNSEIRSLANSSPSAKSLINDLNQKLEPLRL”, at least 0.43; with “HMLDTELEANLRSQRDQKLVEELDPIVTNPLRWAELTSDKQTEWTQYRTDLLNVPQQSGFPTNVTWPEKP”, -0.401. Turning to “HMLDVFSAEQVADVLSVSKRNLETWANNGKLIPDFIHGEVALYSKKQLEQFEQFQRFFNSSWDAERLIQP”, the “soluble fraction (log2)” value is -1.24.

Turning to “HMLDVGDQLVKKLKDNDSLDFHFVNSKEANKGLKDGDYYMVITIPSNFSKNATTLLDKNPKKMVLNYTTNP”, the “soluble fraction (log2)” value worked out at 0.13. Take “HMLEAKQIQDNWESLIKLIEDNFTGERKENLLKMYTHFQDRMMFAPASSKEHFHNAFPGGYVEHVL”: the “soluble fraction (log2)” value was -0.942. Take “HMLEDIDNSIKKEIILEHYDKMLEFHGDYGAIIFRKLLHAYSKGYTGANEFRDLVNQISDKNIMRDLIESF”: the “soluble fraction (log2)” value is -1.17. With “HMLEEIIDVKRFLVENVRGVSEKTALAILSEFGDKTMDVLRNSPNELYRIKGMSGKRIEVIKDAIANATAS” the figure was -1.33; with “HMLEINTIIGNNLKKIRQEKKLTLDELAGITGVSKGMLSQIEKGTTNPTINTIWKISNGLNVPYTYLLEDD”, -0.0827; with “HMLENIVFTNKFKNKRLDVLLVDMKLVSSRQKAVSLIMRGNVFVEEERADKPGKIIKLNQTISLKK”, at least 0.43. With “HMLERPLKLKSHYVSAINEKVAVQFQAGEERKSIMGTLTEVNQDTIVIDDRGSVTEIPFKSIIRAKTVF” the figure was -0.163; with “HMLESPVEAIIRQIKQLITNGKLKPGDRLPAERLLAENFGVGRGYVREAIMKLEFFGLLKTSPQSGTYVAG”, -0.257.

“HMLETIDIFKVTGGEPFLSKDFLEILDLAIEKDLAKNITLMITTNASKFVKKILDKFIHFKRVEFTVS”: the “soluble fraction (log2)” value was -1.05. On to “HMLFGKKYLGKVPNDASGRISLWNDIVKHHQELQNIRAIENFTSDNVTVAQGDTKKAVVVTDYVT”, for which the “soluble fraction (log2)” value is -0.152. With “HMLFQGDTPAENIILEILSKNGTTASDSIIKQSGLSVSDFNQAATMLEIKGLISNNGGNIWSL” the figure was -0.254; with “HMLFVKLSDAQRSMFGAKLARDARIQSEYAQKLPSENYEVFGKALADMLLDETHFKTFYPLLVEYGYTQPK”, -0.649; with “HMLGDIYISIPRAKLQAEEYGHSFKRELAFLAVHGFYHLLGYDHQTKEEEEVMFGKQEEVLAEFDIKR”, -0.245. With “HMLGKNEAKEYKVAYGDIGKMPALIMGLVPLPKPPVVDERLRTLYVTATPEQHREIEAIMNRI” the figure was -0.306; with “HMLGKSNAERQLDLILGAIERSITGVSRSKLMQAYHLDSRGATAAFETLEQRGLITRSKSGRTELLIPTRV”, 0.126. On to “HMLGWEDVIQFEEVKGYGQHIWRDGNHLYYVTEEGGIAPQRVVYELPNELFALLESGERTQLEILSKLQ”, for which the “soluble fraction (log2)” value is -2.35.

Turning to “HMLHNEFINDRIQSAINNLSEHFKIVIILRDIQELSYEEISNIVEVPLGTIKSRINRARIQLQAELLDL”, the “soluble fraction (log2)” value was found to be 0.103. As for “HMLILDTDGRYVIKRGDSLSEILEKIANGSNINLNLLKRAFVTANPKAFKRANPNWMYANAR”, the “soluble fraction (log2)” value was -0.145.

With “HMLIPTISVTKEGQLRFENIPVSWEELGTRLRDVSDLDKIKIYADAESDALTISEIMKTAANVGIVQFVLV”, the “soluble fraction (log2)” value was -1.13.

As to “HMLIRKGVVSFFNDAKGYGFIKDLVTQESAFVHVNSLSETIKEHDKVTFEVEMGHKGANAVNVKLVK”, the “soluble fraction (log2)” value is -0.72. Take “HMLIVLKPNVSQEEIDHIVDKIRSLSLEPHVSTGVQRTIITVIGDEDVIREQPLEALAGVESVKSILKP”: the “soluble fraction (log2)” value is -0.144.

For the sequence “HMLKGTVKWFNESKGFGFIEQEEGKDVFVHYSAITGSGFKTLNEGDKVQFEIVDGPKGPAAANVSK”, the “soluble fraction (log2)” value was -0.927. With “HMLKKGDQVYIISGKDKGKLGVVSQIVSEERILVDGINLAKKHVKPNPNKNETGGVVEKEMPIHASNVMI”, the “soluble fraction (log2)” value is -0.702. With “HMLKLTDRQKVILSILMSDGEKTASWIASQLGVGLRSVQLDLSYLRNNGFIKKASKSTHSAWIVLKK” the figure was 0.205.
